Source: patent US20180021429A1, “ANTICANCER AGENTS OR ANTIMETASTATIC AGENTS USING FSTL1 AND COMBINATION DRUG THEREOF” (PHARMA FOODS INTERNATIONAL CO., LTD., priority 2015, published 2018)

Columns and labels:
[1] = tested on: GFP+F10-snail+ tumor cells; assay: In vivo drug efficacy of each anti-FSTL1 antibody clone, Snail+ tumor bone metastasis model (Example 32); design: species or system mouse
Description: (§1) • Day 0: transplantation of GFP+F10-snail+ tumor cells (3×10^5 cells subcutaneously & 2×10^4 cells intravenously) • Day 4: intraperitoneal administration of the antibody (first dose, 10 mg/kg) • Day 7: intraperitoneal administration of the antibody (second dose, 10 mg/kg)
(§2) Subcutaneous tumor was measured 4, 7, 10, 14, 17, 20, and 23 days after tumor cell transplantation.

[2] = tested on: C57/BL/6 mouse-derived bone marrow cells; assay: MSC induction inhibition test using mouse bone marrow cells, FSTL1 stimulation (Example 27); type: cell-based; conditions: FSTL1 20 ng/mL; antibody 10 μg/mL; 8 days; FIG. 21A
Description: (§3) In this Example, the inhibitory activity of the anti-FSTL1 antibody was confirmed in an experimental system of mesenchymal stem cell induction while a FSTL1 inhibitory effect on MSC expansion induced not only by FSTL1 but by Snail+ tumor cells was also evaluated. For specific operation, each antibody (10 μg/mL) was added to systems in which C57/BL/6 mouse-derived bone marrow cells were stimulated with FSTL1 (20 ng/mL) or a culture supernatant of tumor cells. After culture for 8 days under stimulation, cell fraction CD45(−) cells (MSCs) containing MSCs at a high rate and CD45(−)CD146(+)ALCAM(+) cells (sMSCs) increasing in number in association with cancer metastasis were analyzed by flow cytometry in the same way as in Example 14, and the number of cells per culture system was counted. In this Example, mouse immunoglobulin manufactured by BioLegend, Inc. (#401408, Cone MG1-45) was used as a control antibody.

FSTL1 [3] = biological target: T1, FSTL1 (Homo sapiens, UniProt Q12841); assay: Affinity of mouse chimeric antibodies for human FSTL1, Biacore T-200 (Example 33); type: binding
T1 sequence (Q12841 21-308): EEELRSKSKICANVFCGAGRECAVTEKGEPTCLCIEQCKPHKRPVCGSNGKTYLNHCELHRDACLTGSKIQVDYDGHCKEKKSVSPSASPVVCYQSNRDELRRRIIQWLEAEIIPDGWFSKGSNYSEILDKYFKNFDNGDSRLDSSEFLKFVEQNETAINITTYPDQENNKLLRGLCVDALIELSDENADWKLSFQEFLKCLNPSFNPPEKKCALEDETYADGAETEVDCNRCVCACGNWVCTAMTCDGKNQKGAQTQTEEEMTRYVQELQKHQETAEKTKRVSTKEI
Description: (§4) The mouse chimeric antibodies were immobilized onto Sensor Chip CM5 (GE Healthcare Japan Corp., BR-1005-30) using Mouse Antibody Capture Kit (GE Healthcare Japan Corp., BR-1008-38), and their affinity for human FSTL1 was calculated using Biacore T-200 (GE Healthcare Japan Corp.).
First, the exhaustive activity comparison of the obtained antibodies was conducted with the human FSTL1 concentration fixed to 10 μg/ml (Table 33-1, FIG. 58).
Next, the KD values of clone #6-55, #7-34, and #13 presumed to have high affinity in FIG. 58 were calculated with the antigen concentration adjusted to 0 to 20 μg/ml (Table 35-2).
First, the exhaustive activity comparison of the obtained antibodies was conducted with the human FSTL1 concentration fixed to 10 μg/ml (Table 33-1, FIG. 90).
Next, the KD values of clone #6-55, #7-34, and #13 presumed to have high affinity in FIG. 90 were calculated with the antigen concentration adjusted to 0 to 20 μg/ml (Table 35-2).

[4] = tested on: C57/BL/6 mouse-derived spleen cells; assay: Treg induction inhibition test using mouse spleen cells (Example 28); type: cell-based; conditions: FSTL1 5 ng/ml; antibody 5 μg/mL; 3 days; FIG. 22
Description: (§5) In this Example, the experiment was conducted according to Example 17. Specifically, 5 μg/mL of each antibody was added to a system in which C57/BL/6 mouse-derived spleen cells (2×10^6 cells) were stimulated with 5 ng/ml of FSTL1. After culture for 3 days, the percentage (%) of a Foxp3+CTLA4+ cell fraction in CD4+ T cells was analyzed as Treg cells by flow cytometry. Activity was compared with #6-55 used in the preceding studies.

[5] = tested on: C57/BL/6 mouse-derived bone marrow cells; assay: MSC induction inhibition test using mouse bone marrow cells stimulated with FSTL1 (Example 27); type: cell-based; conditions: FSTL1 20 ng/mL, antibody 10 μg/mL, 8 days; flow cytometry; FIG. 115A
Description: as §3

[6] = tested on: GFP+F10-snail+ tumor cells; assay: In vivo drug efficacy of each anti-FSTL1 antibody clone, GFP+F10-snail+ tumor model (Example 32); design: species or system mouse
Description: as §1, §2
Experiment Group (n=5) Control IgG (anti-DNP mAb) • #6-55 • #7 • #10 • #13 • #33
• Day 0: transplantation of GFP+F10-snail+ tumor cells (3×10^5, cells subcutaneously & 2×10^4 cells intravenously) • Day 4: intraperitoneal administration of the antibody (first dose, 10 mg/kg) • Day 7: intraperitoneal administration of the antibody (second dose, 10 mg/kg)

[7] = tested on: GFP+F10-snail+ tumor cells; assay: as above; design: species or system mouse; remark: listed apart in the source
Description: as §1, §2

[8] = tested on: C57/BL/6 mouse-derived spleen cells; assay: Treg induction inhibition test using mouse spleen cells stimulated with FSTL1 (Example 28); type: cell-based; conditions: FSTL1 5 ng/ml, antibody 5 μg/mL, 3 days; FIG. 116
Description: as §5

FSTL1 [9] = biological target: T1, FSTL1; assay: Affinity of mouse chimeric antibodies, Biacore T-200 (Example 33); type: binding
Description: as §4
First, the exhaustive activity comparison of the obtained antibodies was conducted with the human FSTL1 concentration fixed to 10 μg/ml (Table 33-1, FIG. 28).
Next, the KD values of clone #6-55, #7-34, and #13 presumed to have high affinity in FIG. 28 were calculated with the antigen concentration adjusted to 0 to 20 μg/ml (Table 35-2).

FSTL1 [10] = biological target: T1, FSTL1; assay: Biacore T-200 affinity of mouse chimeric antibodies for human FSTL1 (Example 33); type: binding
Description: as §4
First, the exhaustive activity comparison of the obtained antibodies was conducted with the human FSTL1 concentration fixed to 10 μg/ml (Table 33-1, FIG. 122).
Next, the KD values of clone #6-55, #7-34, and #13 presumed to have high affinity in FIG. 122 were calculated with the antigen concentration adjusted to 0 to 20 μg/ml (Table 35-2).

FSTL1 [11] = biological target: T1, FSTL1; assay: Treg induction inhibition test using mouse spleen cells stimulated with FSTL1 (Example 28); type: cell-based; design: purchased R&D Systems, Inc. 1694-FN-050; conditions: FSTL1 5 ng/ml, antibody 5 μg/mL, 3 days
Description: as §5
In this Example, the experiment was conducted according to Example 17. Specifically, 5 μg/mL of each antibody was added to a system in which C57/BL/6 mouse-derived spleen cells (2×10^6 cells) were stimulated with 5 ng/ml of FSTL1. After culture for 3 days, the percentage (%) of a Foxp3+CTLA4+ cell fraction in CD4+ T cells was analyzed as Treg cells by flow cytometry. Activity was compared with […] used in the preceding studies.

FSTL1 [12] = biological target: T1, FSTL1; assay: MSC induction inhibition test using mouse bone marrow cells stimulated with FSTL1 (Example 27); type: cell-based; design: purchased R&D Systems, Inc. 1694-FN-050; conditions: FSTL1 20 ng/mL, antibody 10 μg/mL, 8 days
Description: as §3, with “([…],” for “(#401408,”
as §3

B1: #10: chicken-mouse chimeric anti-FSTL1 antibody clone; variable regions SEQ ID NO: 811 (light), 813 (heavy) (antibody, V domains shown)
VH: AVTLDESGGGLQTPGGALSLVCKASGFFFFRIYDMGWVRQAPGKGLEWVAGIDDYGRYTGYGSAVKGRATISRDNGQSTVRLQLNNLRAEDTGTYYCARGAGTGCNSAGCGAYAGSIDAWGHGTEVIVSS
VL: ASTQPSSVSANPGETVKLTCSGGGSRYGWYQQKSPGSAPVTVIYYNDKRPSDIPSRFSGSKSGSTATLTITGVQAEDEAVYFCGGYDGSRDAGIFGAGTTLTVL
modifications: mouse constant regions
B1 was tested, and the “mouse survival period (life-prolonging effect)” value (“mouse survival period” below) ([1]; intraperitoneal 10 mg/kg on days 4 and 7, FIG. 27) was “therapeutic effects equal to or higher than those of #6-55”, the “comprehensive evaluation of antitumor activity” value (shortened to “comprehensive evaluation”) ([1]; mouse, in vivo) was “high antitumor activity exceeding that of #6-55” and the “MSC induction inhibitory activity (CD45(−) MSCs, CD45(−)CD146(+)ALCAM(+) sMSCs)” value [2] was “high MSC induction inhibitory activity equivalent to or higher than that of #6-55”. For the same molecule, the “affinity in an assay system using surface plasmon resonance” value (FSTL1 [3]) was “strong affinity”, the “Treg induction (Foxp3+CTLA4+ cell fraction in CD4+ T cells)” value [4] was “strong suppressive activity equal to or higher than that of #6-55” and the “MSC induction inhibitory effect” value [5] was “strong inhibitory effect equivalent to or higher than that of #6-55”. For the same molecule, the “mouse survival period” value ([6]; intraperitoneal 10 mg/kg on days 4 and 7, vs control antibody) was “therapeutic effects equal to or higher than those of #6-55”, the “comprehensive evaluation” value ([6]; mouse, in vivo) was “high antitumor activity exceeding that of #6-55” and the “mouse survival period” value ([7]; intraperitoneal 10 mg/kg on days 4 and 7, FIG. 121) was “therapeutic effects equal to or higher than those of #6-55”. For the same molecule, the “comprehensive evaluation” value ([7]; stated as a possibility) was “high antitumor activity exceeding that of #6-55”, the “Treg induction (Foxp3+CTLA4+ fraction in CD4+ T cells)” value [8] was “strong suppressive activity equal to or higher than that of #6-55” and the “affinity in surface plasmon resonance assay” value (FSTL1 [9]) was “strong affinity”. For the same molecule, the “affinity in an assay system using surface plasmon resonance” value (FSTL1 [10]) was “strong affinity”, the “Treg induction (Foxp3+CTLA4+ fraction in CD4+ T cells)” value (FSTL1 [11]) was “strong suppressive activity equal to or higher than that of #6-55” and the “MSC induction inhibitory activity, reproducibility confirmed” value (FSTL1 [12]) was “high MSC induction inhibitory activity equivalent to or higher than that of #6-55”. The “inhibitory effect in the MSC induction inhibition test (CD45(−) MSCs and sMSCs, flow cytometry)” value (FSTL1 [12]) was “strong inhibitory effect equivalent to or higher than that of #6-55”.
